In patent US20240343814A1:

B1: VRDN-02545 (antibody, V domains shown)
VH: EVQLVQSGGGLVKPGGSLRLSCAASGFTFSSFAMHWVRQAPGKGLEWISVIDTRGATYYADSVKGRFTISRDNAKNSLYLQMNSLRAEDTAVYYCARLGNFYYGMDVWGQGTTVTVSS
VL: EIVLTQSPGTLSVSPGERATLSCRASQSIGSSLHWYQQKPGQAPRLLIKYASQSLHGIPDRFSGSGSGTDFTLTISRLEPEDFAVYYCHQSSRLPHTFGQGTKVEIK
B2: VRDN-02505 (antibody, V domains shown)
VH: EVQLVQSGGGLVKPGGSLRLSCAASGFTFHSFAMHWVRQAPGKGLEWISVIDTRGATYYADSVKGRFTISRDNAKNSLYLQMNSLRAEDTAVYYCARLGNFYYGMDVWGQGTTVTVSS
VL: EIVLTQSPGTLSVSPGERATLSCRASQSIGSSLHWYQQKPGQAPRLLIKYASQSLSGIPDRFSGSGSGTDFTLTISRLEPEDFAVYYCHQSSRLPHTFGQGTKVEIK
B3: VRDN-02544 (antibody, V domains shown)
VH: EVQLVQSGGGLVKPGGSLRLSCAASGFTFSSFAMHWVRQAPGKGLEWISVIDTRGATYYADSVKGRFTISRDNAKNSLYLQMNSLRAEDTAVYYCARLGNFYYGMDVWGQGTTVTVSS
VL: EIVLTQSPGTLSVSPGERATLSCRASQSIGSSLHWYQQKPGQAPRLLIKYASQSHSGIPDRFSGSGSGTDFTLTISRLEPEDFAVYYCHQSSRLPHTFGQGTKVEIK
B4: VRDN-02547 (antibody, V domains shown)
VH: EVQLVQSGGGLVKPGGSLRLSCAASGFTFSSFAMHWVRQAPGKGLEWISVIDTRGATYYADSVKGRFTISRDNAKNSLYLQMNSLRAEDTAVYYCARLGNFYYGMDVWGQGTTVTVSS
VL: EIVLTQSPGTLSVSPGERATLSCRASQSIGSSLHWYQQKPGQAPRLLIKYASQSLSGIPDRFSGSGSGTDFTLTISRLEPEDFAVYYCHQHSRLPHTFGQGTKVEIK
B5: VRDN-02506 (antibody, V domains shown)
VH: EVQLVQSGGGLVKPGGSLRLSCAASGFTFSHFAMHWVRQAPGKGLEWISVIDTRGATYYADSVKGRFTISRDNAKNSLYLQMNSLRAEDTAVYYCARLGNFYYGMDVWGQGTTVTVSS
VL: EIVLTQSPGTLSVSPGERATLSCRASQSIGSSLHWYQQKPGQAPRLLIKYASQSLSGIPDRFSGSGSGTDFTLTISRLEPEDFAVYYCHQSSRLPHTFGQGTKVEIK
B6: VRDN-02560 (antibody, V domains shown)
VH: EVQLVQSGGGLVKPGGSLRLSCAASGFTFSSFHMHWVRQAPGKGLEWISVIDTRGATYYADSVKGRFTISRDNAKNSLYLQMNSLRAEDTAVYYCARLGNFYYHMDVWGQGTTVTVSS
VL: EIVLTQSPGTLSVSPGERATLSCRASQSIGSSLHWYQQKPGQAPRLLIKYASQSLSGIPDRFSGSGSGTDFTLTISRLEPEDFAVYYCHQSSRLPHTFGQGTKVEIK
B7: VRDN-02552 (antibody, V domains shown)
VH: EVQLVQSGGGLVKPGGSLRLSCAASGFTFSSFAMHWVRQAPGKGLEWISVIDTRGATYYADSVKGRFTISRDNAKNSLYLQMNSLRAEDTAVYYCARLGNFYYGMDVWGQGTTVTVSS
VL: EIVLTQSPGTLSVSPGERATLSCRASQSIGSSLHWYQQKPGQAPRLLIKYASQSLSGIPDRFSGSGSGTDFTLTISRLEPEDFAVYYCHQSSRLPHHFGQGTKVEIK
B8: VRDN-02565 (antibody, V domains shown)
VH: EVQLVQSGGGLVKPGGSLRLSCAASGFTFSSFAMHWVRQAPGKGLEWISVIDTRGATYYADSVKGRFTISRDNAKNSLYLQMNSLRAEDTAVYYCHRLGNFYYHMDVWGQGTTVTVSS
VL: EIVLTQSPGTLSVSPGERATLSCRASQSIGSSLHWYQQKPGQAPRLLIKYASQSLSGIPDRFSGSGSGTDFTLTISRLEPEDFAVYYCHQSSRLPHTFGQGTKVEIK
B9: VRDN-02556 (antibody, V domains shown)
VH: EVQLVQSGGGLVKPGGSLRLSCAASGFTFSSFAMHWVRQAPGKGLEWISVIDTRGATYYADSVKGRFTISRDNAKNSLYLQMNSLRAEDTAVYYCARLGNFYYHMDVWGQGTTVTVSS
VL: EIVLTQSPGTLSVSPGERATLSCRASQSIGSSLHWYQQKPGQAPRLLIKHASQSLSGIPDRFSGSGSGTDFTLTISRLEPEDFAVYYCHQSSRLPHTFGQGTKVEIK

Legend:
[1] = target: Recombinant human his-tagged IGF 1R extracellular domain protein (human) (UniProt P08069); assay: SPR, captured IgG, IGF-1R ECD-his analyte, dissociation pH 6
[2] = target: Recombinant human his-tagged IGF 1R extracellular domain protein (human) (UniProt P08069); assay: SPR, captured IgG, IGF-1R ECD-his analyte, dissociation pH 7.4

Binder	Kd [1]	koff [1]	kon [1]	Kd [2]	koff [2]	kon [2]
B1	0.027 nM	1e-06 s⁻¹	37000 M⁻¹ s⁻¹	0.622 nM	3.03e-05 s⁻¹	48700 M⁻¹ s⁻¹
B2	0.0422 nM	1e-06 s⁻¹	23700 M⁻¹ s⁻¹	2.6 nM	0.000375 s⁻¹	144000 M⁻¹ s⁻¹
B3	0.0275 nM	1e-06 s⁻¹	36300 M⁻¹ s⁻¹	0.483 nM	6.18e-05 s⁻¹	128000 M⁻¹ s⁻¹
B4	0.0251 nM	1e-06 s⁻¹	39800 M⁻¹ s⁻¹	0.0084 nM	1e-06 s⁻¹	119000 M⁻¹ s⁻¹
B5	0.0267 nM	1e-06 s⁻¹	37400 M⁻¹ s⁻¹	0.0143 nM	1e-06 s⁻¹	69900 M⁻¹ s⁻¹
B6	0.996 nM	0.000541 s⁻¹	543000 M⁻¹ s⁻¹	0.933 nM	0.0336 s⁻¹	3.61e+07 M⁻¹ s⁻¹
B7	0.0239 nM	1e-06 s⁻¹	41900 M⁻¹ s⁻¹	0.0311 nM	1e-06 s⁻¹	32200 M⁻¹ s⁻¹
B8	5.77 nM	0.0198 s⁻¹	3.43e+06 M⁻¹ s⁻¹	9.12 nM	0.0243 s⁻¹	2.66e+06 M⁻¹ s⁻¹
B9	8.47 nM	0.0146 s⁻¹	1.72e+06 M⁻¹ s⁻¹	10.4 nM	0.0127 s⁻¹	1.22e+06 M⁻¹ s⁻¹
